We go through three substances from paper PMC11221535.

Common to all, as to assay: ITC
In general terms: Isothermal titration calorimetry measures the heat released or taken up as one component is titrated into another.

Experiment [1] addresses TobE N-terminal docking domain (TobE ^NDD) (Methylorubrum extorquens AM1).
Experiment [2] addresses TobE ^NDD-ACP didomain (Methylorubrum extorquens AM1).
The target in experiment [3] is TobC C-terminal docking domain (TobC ^CDD) (Methylorubrum extorquens AM1).

Turning to “TobC C-terminal docking domain (TobC ^CDD) (domain or fragment)”, in experiment [1], the Kd (as a rule, the equilibrium constant for the complex coming apart) worked out at 4 µM and the stoichiometry N (as a rule, the number of molecules, sites or subunits per partner or assembly) was 0.8. This substance returned a Kd in experiment [2] of 5.7 µM.

TobC ^CDD R2271A (domain or fragment): the dissociation constant Kd in experiment [1] turned out to be 769 µM.

Regarding “TobE N-terminal docking domain (TobE ^NDD) (domain or fragment)”, in experiment [3], the equilibrium dissociation constant (Kd) turned out to be 3.2 µM and the stoichiometry N amounted to 1.
